{
  "source": "paper doi:10.1101/2022.01.04.474899",
  "about": "(bioRxiv, 2022)",
  "molecular_target": "the molecule itself",
  "experiment": "SDS-PAGE immunoblot",
  "data": [
    {"protein": "recombinant human asprosin with C-terminal 2×Strep-tag II (natural protein, UniProt P35555 2732-2871, looked up) STNETDASNIEDQSETEANVSLASWDVEKTAIFAFNISHVSNKVRILELLPALTTLTNHNRYLIESGNEDGFFKINQKEGISYLHFTKKKPVAGTYSLQISSTPLYKKKELNQLEDKYDKDYLSGELGDNLKMKIQVLLH", "values": [
      {"measurement": "stoichiometry N", "value": 4}
    ]}
  ]
}
